{
  "source": "patent US20040077017A1",
  "target": "Fc3(1) (human) (UniProt P01860)",
  "experiment": "Biacore 2000 SPR, Fc3(1) immobilized on CM5 chip, 25 C, HBS",
  "note": "pKd: −log10 of the molar value.",
  "data": [
    {"substance": "unlabeled, wild-type Z-ABD (from UniProt P19909 254-299) (designed binder)", "values": [
      {"measurement": "pKd", "value": 7.05}
    ]}
  ]
}
